The experiment concerns the target human CD3 (human) (UniProt P09693). The experiment in a line: cell-based or functional assay.

This is an account of results in patent US20250009780A1, “AGENTS ENCODING CLDN6 AND CD3 BINDING ELEMENTS FOR TREATING CLDN6-POSITIVE CANCERS” (BIONTECH SE, priority 2021, published 2025).

Sequence of human CD3 (human) (chain, as listed by the source, chain 1 of 3): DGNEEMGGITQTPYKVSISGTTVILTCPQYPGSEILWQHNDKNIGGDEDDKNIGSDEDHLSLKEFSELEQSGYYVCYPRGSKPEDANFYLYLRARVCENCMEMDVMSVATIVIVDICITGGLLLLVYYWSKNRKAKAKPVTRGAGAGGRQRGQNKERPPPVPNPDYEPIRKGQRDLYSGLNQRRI
Sequence of human CD3 (human) (P09693 23-182, chain 2 of 3): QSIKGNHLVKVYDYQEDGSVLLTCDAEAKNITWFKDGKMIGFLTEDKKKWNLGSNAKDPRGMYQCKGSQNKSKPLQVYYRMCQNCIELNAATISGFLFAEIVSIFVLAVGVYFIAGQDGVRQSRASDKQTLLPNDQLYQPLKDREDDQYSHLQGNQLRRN
Sequence of human CD3 (human) (P04234 22-171, chain 3 of 3): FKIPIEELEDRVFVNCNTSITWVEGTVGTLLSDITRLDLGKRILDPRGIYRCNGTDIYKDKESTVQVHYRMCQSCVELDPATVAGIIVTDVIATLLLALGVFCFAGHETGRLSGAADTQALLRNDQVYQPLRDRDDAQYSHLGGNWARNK

As to OKT3 antibody, the T-cell activation (CD69/CD25, flow cytometry, 48 h) is above 50%.
